In the Immune Epitope Database (IEDB) one finds IC50 data, which are given here for 13 sequences.

pIC50: −log10 of the molar value.

Holding throughout (experiment): IEDB peptide-MHC binding, purified MHC/competitive/radioactivity; ≥ and ≤ were set here for values at or beyond the usual limits of such assays
Common to all, as to conditions: source organism: Bordetella pertussis

Test [1] concerns the target HLA-B*44:03.
Test [2] has as its target HLA-B*53:01.
For test [3], the target named is HLA-B*57:01.
Test [4] deals with HLA-B*07:02.
The target in test [5] is HLA-B*35:01.

In the case of GEIALGDAT, the negative-log IC50 (pIC50) in test [1] is 4.81.
Consider HADWNNQSI, for which, in test [2], the negative logarithm of the IC50 (pIC50) is 4.91.
With KAKSLTTEI, in test [3], the negative logarithm of the IC50 (pIC50) is at most 4.15.
For KEVDGIIQE, the negative-log IC50 (pIC50) in test [1] is 4.41.
Regarding LPPRPVVAE, in test [4], the negative logarithm of the IC50 (pIC50) was at most 4.11.
For PFIIKLKDC, in test [5], the pIC50 was 4.93.
With PLPPRPVVA, the negative logarithm of the IC50 (pIC50) in test [1] is 4.25.
For the sequence TPLPVSLTA, the pIC50 in test [5] is 6.68; in test [2], 4.93.
With VARLVKLQG, the pIC50 in test [3] is at most 4.15.
As to VIGACTSPY, in test [5], the negative-log IC50 (pIC50) is 4.20.
Still for that read-out and setting: with YALKSRIAL the figure was 4.71.
Turning to YEVTPTRML, the pIC50 in test [1] was 4.72.
Take YSTGDLRAY: in test [5], the negative logarithm of the IC50 (pIC50) was 4.50.
